{
  "source": "paper PMC10643903",
  "about": "(Journal of Innate Immunity, 2022)",
  "binders": {"B1": {"name": "CP010 Fab (Fab, V domains shown)", "VH": "EVQLVESDGGLVQPGGSLKLSCAASGFTFSDYYMAWVRQGPGKGLEWVATINYDGSSTYYRESVKGRFTISRDNAKNTLYLQMNSLRAEDTATYYCARPSTEALFAYWGHGTLVTVSS", "VL": "DVVLTQTPSTLSVTPGQPASISCRSSQSLLNDVGNTYLYWYLQKPGQSPQLLIYLVSDLGSGVPNRFSGSGSGTDFTLKISRVEAEDVGIYYCMQASHAPYTFGQGTNLEIK"}, "B2": {"name": "human C5 C345c domain (residues 1528–1676) (domain or fragment, UniProt P01031 1528-1676, looked up)", "chain": "VEADCGQMQEELDLTISAETRKQTACKPEIAYAYKVSITSITVENVFVKYKATLLDIYKTGEAVAEKDSEITFIKKVTCTNAELVKGRQYLIMGKEALQIKYNFSFRYIYPLDSLTWIEYWPRDTTCSSCQAFLANLDEFAEDIFLNGC"}, "B3": {"name": "CP010, fully humanized version of 7E5 with a human IgG4 S228P constant region (antibody, V domains shown)", "VH": "B1 VH", "VL": "B1 VL"}},
  "key": {"[1]": {"biological_target": "biotinylated AVI-tagged full-length human C6 (Homo sapiens, UniProt P13671, biotin on the AVI-tag (BirA ligase))", "sequence (P13671 22-934)": "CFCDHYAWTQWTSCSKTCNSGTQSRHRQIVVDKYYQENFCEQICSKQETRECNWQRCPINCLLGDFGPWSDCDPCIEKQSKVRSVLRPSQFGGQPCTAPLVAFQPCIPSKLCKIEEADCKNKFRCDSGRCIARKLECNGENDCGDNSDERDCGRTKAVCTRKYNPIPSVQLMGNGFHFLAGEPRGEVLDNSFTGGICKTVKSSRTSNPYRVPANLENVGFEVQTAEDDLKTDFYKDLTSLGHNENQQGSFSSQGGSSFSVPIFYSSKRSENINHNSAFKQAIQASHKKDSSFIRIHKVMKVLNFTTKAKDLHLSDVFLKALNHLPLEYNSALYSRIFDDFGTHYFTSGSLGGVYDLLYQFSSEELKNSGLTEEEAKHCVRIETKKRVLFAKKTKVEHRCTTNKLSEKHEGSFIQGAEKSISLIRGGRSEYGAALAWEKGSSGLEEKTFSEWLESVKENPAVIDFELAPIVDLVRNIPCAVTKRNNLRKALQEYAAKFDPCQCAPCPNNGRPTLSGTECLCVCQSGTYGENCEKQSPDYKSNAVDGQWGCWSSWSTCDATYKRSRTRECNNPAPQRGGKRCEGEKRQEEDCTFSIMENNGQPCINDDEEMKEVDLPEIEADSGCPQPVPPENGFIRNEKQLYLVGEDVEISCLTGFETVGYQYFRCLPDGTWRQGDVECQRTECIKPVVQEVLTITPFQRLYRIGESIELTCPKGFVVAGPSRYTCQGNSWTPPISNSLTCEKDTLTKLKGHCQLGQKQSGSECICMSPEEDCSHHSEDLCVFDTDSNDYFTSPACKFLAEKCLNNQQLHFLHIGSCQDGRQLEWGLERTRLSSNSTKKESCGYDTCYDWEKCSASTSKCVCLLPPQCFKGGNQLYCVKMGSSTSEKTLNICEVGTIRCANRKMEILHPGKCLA", "test": "BLI"}, "dog C6 FIM1-2 fragment": {"biological_target": "T1, dog C6 FIM1-2 fragment (Canis lupus familiaris)", "T1 chain": "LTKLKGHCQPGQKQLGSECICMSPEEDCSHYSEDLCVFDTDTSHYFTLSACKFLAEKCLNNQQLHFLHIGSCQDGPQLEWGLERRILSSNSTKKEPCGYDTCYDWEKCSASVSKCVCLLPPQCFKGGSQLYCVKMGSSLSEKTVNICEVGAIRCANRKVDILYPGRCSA", "test": "BLI"}, "[2]": {"biological_target": "human C6 FIM1-2 fragment (residues 766–934) with an N-terminal 10xHis-tag (human, UniProt P13671)", "sequence (P13671 766-934)": "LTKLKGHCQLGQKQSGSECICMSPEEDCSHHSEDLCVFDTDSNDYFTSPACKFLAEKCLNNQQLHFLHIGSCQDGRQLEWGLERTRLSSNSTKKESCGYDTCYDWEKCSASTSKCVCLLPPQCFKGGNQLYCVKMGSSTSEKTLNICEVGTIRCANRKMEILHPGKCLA", "test": "BLI"}, "[3]": {"biological_target": "pig (Sus scrofa) C6 FIM1-2 fragment (Sus scrofa, UniProt A0SEH0)", "test": "BLI"}, "[4]": {"biological_target": "Macaca C6 FIM1-2 fragment (Macaca fascicularis (entry of printed …, UniProt A0A2K5W3S5))", "test": "BLI"}, "[5]": {"biological_target": "human C6 FIM1-2 fragment (residues 766–934) with an N-terminal 10xHis-tag (human, UniProt P13671 766-934)", "sequence (P13671 766-934)": "as above", "test": "BLI"}, "[6]": {"biological_target": "recombinant full-length human C6 with a C-terminal 10xHis-tag (human, UniProt P13671 22-934)", "sequence (P13671 22-934)": "as the sequence (P13671 22-934) above", "test": "BLI"}, "[7]": {"biological_target": "C6∆FIM1-2 (1–762) with a C-terminal His-tag (human, UniProt P13671)", "sequence (P13671 22-762)": "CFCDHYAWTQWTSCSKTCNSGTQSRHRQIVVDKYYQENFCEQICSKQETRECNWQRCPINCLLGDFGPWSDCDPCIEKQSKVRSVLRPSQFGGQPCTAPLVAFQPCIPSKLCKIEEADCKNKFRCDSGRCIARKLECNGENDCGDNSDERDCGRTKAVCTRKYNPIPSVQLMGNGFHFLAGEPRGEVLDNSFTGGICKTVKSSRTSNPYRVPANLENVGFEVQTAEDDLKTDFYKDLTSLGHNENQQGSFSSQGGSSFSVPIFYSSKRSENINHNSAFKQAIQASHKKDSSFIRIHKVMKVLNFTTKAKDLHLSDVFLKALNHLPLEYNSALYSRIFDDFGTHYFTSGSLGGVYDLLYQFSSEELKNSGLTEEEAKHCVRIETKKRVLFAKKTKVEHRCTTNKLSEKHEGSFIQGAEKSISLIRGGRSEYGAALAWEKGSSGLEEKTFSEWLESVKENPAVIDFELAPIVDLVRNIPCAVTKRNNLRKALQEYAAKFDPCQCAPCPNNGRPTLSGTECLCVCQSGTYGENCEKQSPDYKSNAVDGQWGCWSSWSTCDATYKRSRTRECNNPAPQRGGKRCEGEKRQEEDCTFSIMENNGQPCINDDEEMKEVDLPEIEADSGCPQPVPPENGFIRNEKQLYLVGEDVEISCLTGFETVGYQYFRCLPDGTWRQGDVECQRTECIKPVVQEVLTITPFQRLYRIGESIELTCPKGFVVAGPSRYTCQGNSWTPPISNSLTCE", "test": "SEC"}},
  "data": [
    {"binder": "B1", "values": [
      {"measurement": "Kd", "setting": "[1]", "result": 0.3, "unit": "nM"},
      {"measurement": "Kd", "setting": "dog C6 FIM1-2 fragment", "result": "~5", "unit": "nM"},
      {"measurement": "Kd", "setting": "[2]", "result": 2.8, "unit": "nM"},
      {"measurement": "Kd", "setting": "[3]", "result": "~5", "unit": "nM"},
      {"measurement": "Kd", "setting": "[4]", "result": "~5", "unit": "nM"}
    ]},
    {"binder": "B2", "values": [
      {"measurement": "Kd", "setting": "[5]", "result": 5, "unit": "nM"},
      {"measurement": "Kd", "setting": "[6]", "result": "10 to 20", "unit": "nM"}
    ]},
    {"binder": "B3", "values": [
      {"measurement": "binding result", "setting": "[7]", "result": "no binding"}
    ]}
  ]
}
